The record followed here is US20240016892A1 (SHATTUCK LABS, published 2024).

Experiment [1] deals with T1, cell surface human LTβR (A375 cells; U2OS/NIK/NFκB reporter cells) (human, UniProt P36941 31-435).
T1 construct: whole, on cells; also called cell surface LTβR
Kind of experiment: flow cytometry, A375 cells that express human LTβR; cell surface LTβR. (Flow cytometry measures light scatter and fluorescence of single cells or particles in a stream.)

The target in experiment [2] is T2, recombinant human PVR (human, UniProt P15151 21-343).
T2 construct: The tagged PVR of the BLI assay and the biotinylated PVR used as detector in MSD are treated as one molecule; also called rhPVR; CD155
T2 sequence (looked up): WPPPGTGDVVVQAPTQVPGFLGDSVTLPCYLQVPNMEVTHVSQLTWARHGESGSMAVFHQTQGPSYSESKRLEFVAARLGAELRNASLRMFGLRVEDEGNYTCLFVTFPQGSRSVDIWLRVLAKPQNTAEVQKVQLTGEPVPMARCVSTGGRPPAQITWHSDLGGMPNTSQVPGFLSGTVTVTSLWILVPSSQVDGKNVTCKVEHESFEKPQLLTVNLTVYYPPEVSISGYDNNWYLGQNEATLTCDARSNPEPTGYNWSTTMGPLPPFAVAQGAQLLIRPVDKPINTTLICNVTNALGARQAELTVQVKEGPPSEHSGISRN
Kind of experiment: BLI (Octet-Red96), tagged rhPVR immobilised on biosensor. The procedure:
(§1) Bio-Layer interferometry-based affinity testing was used to determine the on-rates (Ka), off-rates (Kd) and binding affinities (KD) of the TIGIT-Fc-LIGHT chimeric protein to intended binding targets, using histidine- or biotin-tagged versions of the human recombinant proteins (PVR, HVEM, LTβR, PVRL2, PVRL3, and Nectin-4; purchased from Acro Biosystems or Sino Biological). Commercially available or internally produced single-sided fusion protein controls (TIGIT-Fc and Fc-LIGHT) were also tested in parallel. Targets were immobilized at a concentration of 3 μg/mL in Kinetics buffer (PBS/0.1% Tween-20/1% BSA; pH7.0) to anti-pentaHis or streptavidin coated biosensors. Direct binding of fusion proteins to recombinant target proteins was performed on an Octet-Red96 BLI instrument, using association and dissociation times of 90 and 120 seconds, respectively.
(§2) Protein-protein interactions (PPI) between the fusion proteins and their cognate binding partners were characterized using both recombinant protein and cell-based methods. First, bio-layer interferometry-based affinity testing was used to assess the kinetics of receptor/ligand binding.
On the technique in general: BLI is a label-free optical method that tracks binding on a fibre tip over time.

Experiment [3] deals with T2, recombinant human PVR. Kind of experiment: MSD sandwich 'Dual - Potency #2': capture HVEM-Fc, TIGIT-Fc-LIGHT titrated, detection PVR-Biotin (same curve as the capture row). The procedure: For the TIGIT-Fc-LIGHT chimeric protein; MSD Multi-Array plates (MSD) were pre-coated overnight with recombinant human LTβR-Fc or HVEM-Fc (Acro Biosystems) at 4° C. The plates were blocked with Diluent 100 (MSD) for at least one hour at room temperature on a shaker. After washing, analysis samples were added and then serially diluted 3-fold and loaded in duplicate wells to generate 8-10 test concentrations. The bound the TIGIT-Fc-LIGHT chimeric protein was detected with recombinant biotinylated human PVR (Acro Biosystems). Streptavidin conjugated to ruthenium (MSD), was added to bind the biotin labeled detector. MSD Gold Reading buffer (MSD) was added to the plate, and upon application of an electrical charge, an electrochemiluminescent signal was produced and detected with the MSD MESO QuickPlex SQ 120MM, Model 1300, to generate relative light units (RLU). Analogous assays were performed using mTIGIT-Fc-LIGHT and murine recombinant PVR, HVEM, and […] (Acro Biosystems).
The binding of the TIGIT-Fc-LIGHT chimeric protein to its receptors was characterized by Meso Scale Discovery (MSD) ELISA assays. […] Binding of the chimeric protein to LTβR-Fc was detected using an PVR-Biotin and using an electrochemiluminescence (ECL) readout. […] Binding of the chimeric protein to HVEM-Fc was detected using an PVR-Biotin and using an electrochemiluminescence (ECL) readout. […]

Another experiment deals with T3, recombinant human LTβR (human, UniProt P36941 31-227, limits assumed).
T3 construct: Bought from Acro Biosystems or Sino Biological; construct limits and tag not specified; also called rhLTβR; TNFRSF3
Kind of experiment: BLI (Octet-Red96), tagged rhLTβR immobilised on biosensor. The procedure: as §1, §2

The target in experiment [4] is T4, cell surface human PVR (CHO-K1/hPVR cells) (human, UniProt P15151 21-417).
T4 construct: whole, on cells; also called cell surface PVR; CD155(PVR)
T4 sequence (looked up): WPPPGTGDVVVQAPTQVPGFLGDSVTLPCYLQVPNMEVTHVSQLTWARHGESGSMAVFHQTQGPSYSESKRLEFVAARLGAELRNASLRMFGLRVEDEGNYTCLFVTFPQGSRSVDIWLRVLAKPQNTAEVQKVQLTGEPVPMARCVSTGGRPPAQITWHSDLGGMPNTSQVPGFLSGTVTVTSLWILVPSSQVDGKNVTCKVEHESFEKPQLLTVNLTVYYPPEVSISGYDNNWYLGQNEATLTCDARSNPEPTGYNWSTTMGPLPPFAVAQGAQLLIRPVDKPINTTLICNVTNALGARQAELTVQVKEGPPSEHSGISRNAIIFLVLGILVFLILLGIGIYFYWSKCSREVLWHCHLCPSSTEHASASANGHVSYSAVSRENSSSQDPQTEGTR
Kind of experiment: flow cytometry, CHO-K1 cells stably expressing human PVR; cell surface PVR.

Experiment [5] concerns the target T5, recombinant human CD113 (PVRL3) (human, UniProt Q9NQS3 58-404).
T5 construct: also called rhCD113 (PVRL3); Nectin-3
Kind of experiment: BLI (Octet-Red96), tagged rhCD113 (PVRL3) immobilised on biosensor. The procedure: as §1

In a further experiment the target is T6, recombinant human HVEM (human, UniProt Q92956 39-202).
T6 construct: Construct limits and tag not specified; also called rhHVEM; TNFRSF14
T6 sequence (looked up): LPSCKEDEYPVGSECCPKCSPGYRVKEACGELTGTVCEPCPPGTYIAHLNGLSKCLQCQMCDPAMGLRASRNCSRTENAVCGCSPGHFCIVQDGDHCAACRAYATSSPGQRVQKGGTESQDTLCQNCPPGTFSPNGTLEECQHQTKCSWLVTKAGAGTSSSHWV
Kind of experiment: BLI (Octet-Red96), tagged rhHVEM immobilised on biosensor. On the procedure: as §1, §2

T3 sequence (P36941 31-227 limits assumed): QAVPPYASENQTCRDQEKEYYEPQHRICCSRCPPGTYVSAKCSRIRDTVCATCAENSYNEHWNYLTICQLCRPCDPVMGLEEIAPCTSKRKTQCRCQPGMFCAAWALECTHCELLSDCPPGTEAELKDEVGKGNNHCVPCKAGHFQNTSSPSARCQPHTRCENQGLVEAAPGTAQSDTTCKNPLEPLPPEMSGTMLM
T5 sequence (Q9NQS3 58-404 limits assumed): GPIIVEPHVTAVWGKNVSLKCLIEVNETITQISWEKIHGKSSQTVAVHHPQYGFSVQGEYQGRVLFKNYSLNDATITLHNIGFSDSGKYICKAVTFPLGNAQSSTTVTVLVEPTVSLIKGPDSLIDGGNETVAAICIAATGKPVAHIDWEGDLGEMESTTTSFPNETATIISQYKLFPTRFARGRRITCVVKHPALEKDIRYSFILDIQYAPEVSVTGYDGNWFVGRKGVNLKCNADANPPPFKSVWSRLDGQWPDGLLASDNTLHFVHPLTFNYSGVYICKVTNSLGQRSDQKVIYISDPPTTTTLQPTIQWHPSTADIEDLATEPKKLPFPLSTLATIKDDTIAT
T1 sequence (P36941 31-435): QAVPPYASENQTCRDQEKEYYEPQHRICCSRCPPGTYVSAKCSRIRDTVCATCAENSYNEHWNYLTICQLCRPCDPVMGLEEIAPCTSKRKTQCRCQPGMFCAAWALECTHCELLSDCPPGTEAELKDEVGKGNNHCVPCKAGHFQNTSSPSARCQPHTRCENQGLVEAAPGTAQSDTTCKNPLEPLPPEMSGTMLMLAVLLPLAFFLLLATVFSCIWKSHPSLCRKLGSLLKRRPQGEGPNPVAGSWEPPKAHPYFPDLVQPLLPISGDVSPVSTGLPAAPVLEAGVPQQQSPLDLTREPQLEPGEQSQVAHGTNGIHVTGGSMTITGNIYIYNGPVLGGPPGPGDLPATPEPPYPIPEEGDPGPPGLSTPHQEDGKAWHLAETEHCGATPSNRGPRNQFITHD

B1: human TIGIT-Fc-LIGHT chimeric protein (Fc fusion)
chain: MMTGTIETTGNISAEKGGSIILQCHLSSTTAQVTQVNWEQQDQLLAICNADLGWHISPSFKDRVAPGPGLGLTLQSLTVNDTGEYFCIYHTYPDGTYTGRIFLEVLESSVAEHGARFQIPSKYGPPCPPCPAPEFLGGPSVFLFPPKPKDQLMISRTPEVTCVVVDVSQEDPEVQFNWYVDGVEVHNAKTKPREEQFNSTYRVVSVLTVLHQDWLSGKEYKCKVSSKGLPSSIEKTISNATGQPREPQVYTLPPSQEEMTKNQVSLTCLVKGFYPSDIAVEWESNGQPENNYKTTPPVLDSDGSFFLYSRLTVDKSRWQEGNVFSCSVLHEALHNHYTQKSLSLSLGKIEGRMDLQLHWRLGEMVTRLPDGPAGSWEQLIQERRSHEVNPAAHLTGANSSLTGSGGPLLWETQLGLAFLRGLSYHDGALVVTKAGYYYIYSKVQLGGVGCPLGLASTITHGLYKRTPRYPEELELLVSQQSPCGRATSSSRVWWDSSFLGGVVHLEAGEKVVVRVLDERLVRLRDGTRSYFGAFMV
notes: Said to exist as a hexamer (dimer of trimers); Glycosylated; also called hTIGIT-Fc-LIGHT; TIGIT-Fc(IgG4)-LIGHT
A word on the EC50: it is the midpoint of the concentration-response curve. As usually defined, the Kd is the equilibrium constant for the complex coming apart. In general, koff refers to the first-order rate constant of dissociation. The term kon denotes the rate constant with which the complex forms. B1: the EC50 was 87.1 nM in experiment [1], 86 nM in the experiment with recombinant human PVR [3] and 35.4 nM in experiment [4]. Moreover, the Kd with recombinant human PVR [2] came to 4.07 nM; with recombinant human LTβR, 3.52 nM; in the experiment with recombinant human HVEM it was 6.49 nM. Further, the koff was determined as 0.000103 s⁻¹ with recombinant human PVR [2], 7.44e-05 s⁻¹ with recombinant human LTβR, 0.00126 s⁻¹ in experiment [5] and 0.000173 s⁻¹ with recombinant human HVEM. For the same molecule, the kon stood at 25300 M⁻¹ s⁻¹ in the experiment with recombinant human PVR [2], 21200 M⁻¹ s⁻¹ with recombinant human LTβR, 130000 M⁻¹ s⁻¹ in experiment [5] and 26100 M⁻¹ s⁻¹ in the experiment with recombinant human HVEM.
